Entries after “also recorded” stand apart in the source; their conditions may differ. Where two headings read alike, the source gives them in different places.

The values below come from patent US12350286B2, “Polypeptides directed against viral infection and uses thereof” (QUADRUMIX BIOTECHNOLOGY INC., priority 2020, dated 2025).

One assay concerns HBeAg. Particulars: HepAD38 cells, 6-day time course.
Another assay relates to HBV. Nature of the assay: supernatant HBV DNA in HepAD38 cells. The assay is classed as cell-based. Particulars: 6-day time course. An excerpt: Having regard to FIG. 12, TDF targets the HBV reverse transcriptase, thus only affecting the number virions secreted in the supernatant. In contrast, the presently designed polypeptides should affect cccDNA stability, which can be indirectly measured through levels. As expected, a significant decrease in supernatant HBV (2 log) was caused by TDF treatment. A significant, albeit lower, decrease in HBV supernatant DNA was also observed from sdAb10-2 treatment (0.5 log).

Another assay concerns NTCP-HUH7 cells. In words: localization and entry into target cells (staining, microscopy). It is filed as cell-based. The text has this:
The foregoing one or more modifications of the at least one polypeptide sdAb10 result in antiviral efficacy. […] Alternatively, the second and third rows shown in FIG. 7 provide that both polypeptides modified to include a cell penetrating peptide coding sequence entered the target cells (i.e. the nuclei and cytoplasm being visualized Hoescht stain and by fluorescently labelled anti-vinculin antibodies, respectively).

For assay [1], the system named is wild-type G-quadruplex of HBV cccDNA pre-core promoter region. In words: phage ELISA assay (absorbance at 450 nm), wild-type vs mutant G-quadruplex. The assay is classed as binding. Particulars: for affinity for wild-type G-quadruplex structure of HBV cccDNA compared to mutant G-quadruplex structure: phage ELISA, WT vs MUT (G1748A). An excerpt:
According to embodiments, methods of developing and designing the present at least one novel polypeptide comprising at least one antiviral sdAb are provided. In some embodiments, the methods comprise accessing a fully synthetic phage-display library that codes for 3-billion sdAbs clones, enabling efficient selection of in vitro humanized antibodies against virtually any antigen. Advantageously, no animals or immunization are required, allowing the selection of sdAbs that can target unprocessed G-quadruplex, thereby overcoming conventional techniques of injecting animals to raise antibodies (such techniques known to alter antigen structures).
Having regard to FIG. 4B and Table 1 herein, the at least nine polypeptides having at least one sdAb are referred to as sdAbs 1, 4, 5, 6, 7, 8, 9, 10, and 11 and comprise an amino acid sequence represented as SEQ ID NOs: 9, 10, 11, 12, 13, 14, 15, 16, and 17, respectively.

A further assay relates to HBV cccDNA. Nature of the assay: pulldown assay with Hirt-extracted cccDNA from explanted HBV infected liver. The assay is classed as binding. To be noted: for interaction with cccDNA: pulldown, cccDNA from explanted HBV infected liver; for replicates that picked up cccDNA: three replicates, nested PCR detection. The procedure:
In this Example 1, binding studies for at least one of the presently designed polypeptides having at least one sdAb with HBV pre-core G-quadruplex were performed using patient derived samples. For example, two of the presently developed sdAbs, namely sdAb #8 (NB01) and sdAb #1 (NB07), were produced via E. coli expression system and purified via nickel bead affinity chromatography, then size exclusion chromatography (as described in more detail herein). Pulldown assays using Hirt-extracted cccDNA from explanted liver tissue (i.e. liver transplanted secondary to HCC from HBV) were performed.
Having regard to FIG. 8B, results are provided from the pulldown study using sdAbs-bound to magnetic nickel beads with Hirt-extracted, T5 exonuclease-digested cccDNA from an explanted HBV infected liver. Beads were incubated with the corresponding sdAbs comprising, in this Example, the presently developed sdAb8 and sdAb1, washed, and incubated with cccDNA. Excess cccDNA was removed (“xsDNA” lanes), followed by 4 washing steps (“4th Wash” lanes). The sdAbs were eluted and cccDNA was detected through nested PCR (“Elution” lanes). The first lane is the DNA marker highlighting the 150 bp fragment and the next two lanes represent the “sdAb only” elutions (sdAb8 and sdAb1). Subsequent sets of 3 represent the excess cccDNA (“xs”), last washes (“W”) and elutions (“E”) from the corresponding tubes. The last three lanes represent the PCR controls, with negatives from the direct (D) and nested (N) rounds.

Assay [2] relates to HBV surface antigen (HBsAg). Nature of the assay: HBsAg levels following exposure to the polypeptide. To be noted: increased concentration from 50 μg/mL to 100 μg/mL. The procedure: Having regard to FIG. 5A, expression methods using a bacterial expression system (SDS-PAGE) yielded ˜3 mg of pure sdAbs from 1 L bacterial culture, where lane 1 represents the standard molecular weight marker and elution fractions are shown in lanes 2-6, indicating the presence of at least one polypeptides having at least one sdAb (between 18.4 kDa and 14.4 kDa markers). […] The foregoing confirms that the at least one polypeptide comprise at least one antiviral sdAb.

The test system of assay [3] is HBV pre-core G-quadruplex. In words: MST binding study with HBV pre-core G-quadruplex. The procedure:
In this Example, binding studies for at least one of the presently designed polypeptides having at least one sdAb (e.g. sdAb10M and sdAb1) with HBV pre-core G-quadruplex were performed.

Procedure for HBeAg: In this Example 3, the effects of the presently designed polypeptides on HBV replication were analyzed, HepAD38 cells that expresses HBV under the control of a tetracycline promoter were used. HepAD38 cells were plated in the presence of TDF or candidate therapeutic (sdAb10-2) without tetracycline for three days to induce HBV production and to establish a cccDNA reservoir in the nuclei of infected cells. After three days, drugs/sdAbs were replenished and the media was replenished with tetracycline to suppress HBV transcripts being produced from the plasmid, so that only HBV markers be produced from the established cccDNA reservoir. Varying drug concentrations of—TDF and sdAb10-2 were used to determine drug toxicity (TD50) and efficacy during the 6-day time course.
The ability of the presently designed polypeptides to reduce HBeAg levels was also analyzed.

As to `CC(C)OC(=O)OCOP(=O)(CO[C@H](C)Cn1cnc2c(N)ncnc21)OCOC(=O)OC(C)C.O=C(O)/C=C/C(=O)O` [TDF, Tenofovir Disoproxil Fumurate, reference compound], in the assay with HBeAg, the HBeAg levels entry was “did not significantly decrease”. For the same molecule, the “decrease in supernatant HBV DNA” value in the assay with HBV is reported as 2 log.

B1: sdAb8: single domain antibody, amino acid sequence SEQ ID NO: 14 (protein)
VHH: MAEVQLQASGGGFVQPGGSLRLSCAASGTTSGQTAMGWFRQAPGKEREFVSAISGHHTPRAYYADSVKGRFTISRDNSKNTVYLQMNSLRAEDTATYYCAWIRRKPQSWYWGQGTQVTVSS
modifications: Single-Domain Antibody 8
B1: the “entry into target cells” value in the assay on NTCP-HUH7 cells (listed as sdAb08) is “do not enter the cells; also recorded: failed to enter target cells”. The “affinity for wild-type G-quadruplex structure of HBV cccDNA compared to mutant G-quadruplex structure” value in assay [1] is recorded as “higher affinity for the wild-type G-quadruplex structure”. In the assay on HBV cccDNA, the “interaction with cccDNA” value is given as “interacts with HBV cccDNA” and the “replicates that picked up cccDNA” value was “two of the three replicates”.

B2: sdAb 6: single domain antibody, amino acid sequence SEQ ID NO: 12 (protein)
VHH: MAEVQLQASGGGFVQPGGSLRLSCAASGTGFRHTAMGWFRQAPGKEREFVSAISGHASKQAYYADSVKGRFTISRDNSKNTVYLQMNSLRAEDTATYYCAFRRAEKIYGHPMAPQKLWYWGQGTQVTVSS
modifications: Single-Domain Antibody 6
For the molecule B2, in assay [1], the “affinity for wild-type G-quadruplex structure of HBV cccDNA compared to mutant G-quadruplex structure” value is “higher affinity for the wild-type G-quadruplex structure”.

B3: sdAb 11: single domain antibody, amino acid sequence SEQ ID NO: 17 (protein)
VHH: MAEVQLQASGGGFVQPGGSLRLSCAASGFTSESTSMGWFRQAPGKEREFVSAISRWESTEEYYADSVKGRFTISRDNSKNTVYLQMNSLRAEDTATYYCAYRMHWGGRWRWNYWGQGTQVTVSS
modifications: Single-Domain Antibody 11
In the case of B3, in assay [1], the “affinity for wild-type G-quadruplex structure of HBV cccDNA compared to mutant G-quadruplex structure” value was “higher affinity for the wild-type G-quadruplex structure”.

B4: sdAb 7: single domain antibody, amino acid sequence SEQ ID NO: 13 (protein)
VHH: MAEVQLQASGGGFVQPGGSLRLSCAASGRTYRGETMGWFRQAPGKEREFVSAISWGWSNRAYYADSVKGRFTISRDNSKNTVYLQMNSLRAEDTATYYCASRHMRRAPWSGPGMSYWGQGTQVTVSS
modifications: Single-Domain Antibody 7
In the case of B4, in assay [1], the “affinity for wild-type G-quadruplex structure of HBV cccDNA compared to mutant G-quadruplex structure” value was “higher affinity for the wild-type G-quadruplex structure”.

B5: sdAb10: single domain antibody, amino acid sequence SEQ ID NO: 16 (protein)
VHH: MAEVQLQASGGGFVQPGGSLRLSCAASGRTSKITSMGWFRQAPGKEREFVSAISWSNGLTNYYADSVKGRFTISRDNSKNTVYLQMNSLRAEDTATYYCASKIHTKPKWYWGQGTQVTVSS
modifications: Single-Domain Antibody 10
Turning to B5, the “affinity for wild-type G-quadruplex structure of HBV cccDNA compared to mutant G-quadruplex structure” value in assay [1] is listed as “higher affinity for the wild-type G-quadruplex structure”. The HBsAg levels entry in assay [2] was “dose-dependent decrease in HBsAg levels”.

B6: sdAb 9: single domain antibody, amino acid sequence SEQ ID NO: 15 (protein)
VHH: MAEVQLQASGGGFVQPGGSLRLSCAASGRTSGHYSMGWFRQAPGKEREFVSAISGRGNSLSYYADSVKGRFTISRDNSKNTVYLQMNSLRAEDTATYYCAWWHRDSHPQSGKHMRYWGQGTQVTVSS
modifications: Single-Domain Antibody 9
As for B6, the “affinity for wild-type G-quadruplex structure of HBV cccDNA compared to mutant G-quadruplex structure” value in assay [1] is listed as “higher affinity for the wild-type G-quadruplex structure”.

B7: sdAb 4: single domain antibody, amino acid sequence SEQ ID NO: 10 (protein)
VHH: MAEVQLQASGGGFVZPGGSLRLSCAASGRTSKWYSMGWFRQAPGKEREFVSAISYRQNIRAYYADSVKGRFTISRDNSKNTVYLQMNSLRAEDTATYYCAATHSYLFKFPTHFPQPQDYWGQGTQVTVSS
modifications: Single-Domain Antibody 4
For B7, the “affinity for wild-type G-quadruplex structure of HBV cccDNA compared to mutant G-quadruplex structure” value in assay [1] is “higher affinity for the wild-type G-quadruplex structure”.

B8: sdAb10-1: sdAb10 modified with CPP, NTCP-recognition and NLS sequences; full sequence SEQ ID NO: 19 (protein)
VHH: GRKKRRQRRRPPQGGGGSMAEVQLQASGGGFVQPGGSLRLSCAASGRTSKITSMGWFRQAPGKEREFVSAISWSNGLTNYYADSVKGRFTISRDNSKNTVYLQMNSLRAEDTATYYCASKIHTKPKWYWGQGTQVTVSSGGGGSNPLGFFPGGGGSDHQLDGGGGSPKKKRKVSSFLRNHHHHHH
modifications: Single-Domain Antibody 10-01
B8: in the assay on NTCP-HUH7 cells, the “entry into target cells” value was “enter the cell; also recorded: localize and enter the target hepatocyte cells”.

B9: sdAb10-2: sdAb10 modified with CPP, NTCP-recognition and NLS sequences; full sequence SEQ ID NO: 20 (protein)
VHH: MAEVQLQASGGGFVQPGGSLRLSCAASGRTSKITSMGWFRQAPGKEREFVSAISWSNGLTNYYADSVKGRFTISRDNSKNTVYLQMNSLRAEDTATYYCASKIHTKPKWYWGQGTQVTVSSGGGGSGRKKRRQRRRPPQGGGGSNPLGFFPGGGGSDHQLDGGGGSPKKKRKVSSFLRNHHHHHH
modifications: Single-Domain Antibody 10-02
For the molecule B9, the “entry into target cells” value in the assay with NTCP-HUH7 cells was “enter the cell; also recorded: localize and enter the target hepatocyte cells”. In addition, in the assay with HBeAg, the HBeAg levels entry is “significantly decreased”. Besides, the “decrease in supernatant HBV DNA” value with HBV turned out to be 0.5 log.

B10: sdAb 5: single domain antibody, amino acid sequence SEQ ID NO: 11 (protein)
VHH: MAEVQLQASGGGFVZPGGSLRLSCAASGRTSYHTNMGWFRQAPGKEREFVSAISSSPNAATYYADSVKGRFTISRDNSKNTVYLQMNSLRAEDTATYYCARTKYGRVMGHMWYWGQGTQVTVSS
modifications: Single-Domain Antibody 5
Regarding B10, the “affinity for wild-type G-quadruplex structure of HBV cccDNA compared to mutant G-quadruplex structure” value in assay [1] is reported as “higher affinity for the wild-type G-quadruplex structure”.

B11: sdAb1: single domain antibody, amino acid sequence SEQ ID NO: 9; used as negative control (poor binder) (protein)
VHH: MAEVQLQASGGGFVQPGGSLRLSCAASGRTYRHSGMGWFRQAPGKEREFVSAISDDHNMESYYADSVKGRFTISRDNSKNTVYLQMNSLRAEDTATYYCAMTKWHGPGGPHWYWGQGTQVTVSS
modifications: Single-Domain Antibody 1
As for B11, the “interaction with pre-core G-quadruplex of cccDNA” value in assay [1] (FIG. 4) was “only weakly interacted with the G-quadruplex”. For the same molecule, the “affinity for wild-type G-quadruplex structure of HBV cccDNA compared to mutant G-quadruplex structure” value in assay [1] was “higher affinity for the wild-type G-quadruplex structure”. In addition, in the assay on HBV cccDNA, the “interaction with cccDNA” value was “did not interact with cccDNA” and the “replicates that picked up cccDNA” value is listed as “none of the replicates”. The “interaction with HBV pre-core G-quadruplex” value in assay [3] is recorded as “did not interact with HBV pre-core G-quadruplex”.
